{
  "source": "patent US12194057B2",
  "about": "“NXTAR-derived oligonucleotides and uses thereof” (Washington University, priority 2020, dated 2025)",
  "molecules": {"B1": {"name": "NXTAR: long non-coding RNA, 1476-nt transcript (SEQ ID NO: 58), expressed from retroviral or plasmid constructs (nucleic acid, listed as Homo sapiens)", "chain": "GGAAAAGGAAGGCTGCACAGAAGAACTGGCATTTGTGTTCTGCCTACAAAGCTGAAAAGGATTTCACCCAAATCAGGGAAGATCAGCCTTATGAGGTGGATATTATTGCCACAATAATTTTCCAGATGAAAAATGGAGGCCCAGAGATGTTAAGGAATTTGCCCAAGATCATGAAAAGACACTCTCCCCTATTGAGATGTCATGCAAGGATCAGTGCTGTGTGAAAATCCACATGAAGCAGGAAATGCAGGTGGTGGTGTCCAATCTGATTTCAAGATCTGAGAAGCTGTGCACTGCCTGAAAGGTATCTATTTAAGGTGTCACCAGACTCCTGCTCCACTCCTGCCCAAGGCCCAGCCCATCCAAGAGCAAAAGGCAAGTGGTGTTACAACCTTGGGATTTCCTGTATCTGCCCTCTTGCGGATAGCAGGACAGAGTCACAGCTGCATTAAATTCGCTTAAGACTTATTGAGACACTTCAACACTTCAACAACGACCTGTGAGATTAAGATTATTATTTTAAATTTACAGAAGGGGAAACTAAGAATTATAGACATGAAGTGACTCACCTATGACCACCTGGTGATAGAACCAGGACTAGAGCTCAGGTATGAAGATTTCTGGGGGAGTCCCTGAAAAAAAGGCTCCATATGGAATTACAATGTGGAAAAGGCCAAGGCCTCACCAACCCTTTTCTCTTCAACACCTGGATCCCTAAGTCCTTATTCGTAACCTCCTCTTTGGACAAGGTTTTGGTAGACAAAGCCAGAGCCTCTTGCACTGAGAAAGACAAATTCTCCTCTTGCAGTGAACCACAGGTAAATGCTCCAATAGAGAGTCCAAGCCAAACCTCCGGGTGTTATTCATGACCCAGGCAAGTCTGCTTTCTCATTCCCCCTATCTCTAGACCGTTTTCCATTTGGGCTTCCTTTTCTTCTTTTATCCTCAAAGAAACATGTTTCCTTCTAGTAGGTTTGGCTGCCACCACTAGGGTCCTGGCTACAACTGGCCCTCAGGTAACTCTCTCACCTCTGAGTTGGATAGTATCCTCTCTCGTCCCCATACACAAGTGTTTCTCTTCCCAGACACCTTCCTTACACAATTTCCCATTTCTTTCTCATCTCACCCTTGCTTTAATCAACATAGTTCTTTCCCCTGAGATTACTCTTCAGCCTTTCTTGTTGAAGCACTGCCCAGTGGTTCTCTTGGGATTTCCATTTCTCTCCCCTCAGCTCTCTTGGTACCAAATTCTGTAAGCTTCTCTGGTTTTTGGTTTCTCTTCCTTCTTTTCCTTCCAGGCAACATTTACTCAATCTAGGCTTGGATGATCAGGTACTTCTGCCAGCCTGCCCACTAGGGAACTCTGGGCTAGGAATATGTCTCAATGGCACCATTATATTTGGAAGGACGCTTCTGTATTTACACTGAACACACTAAAATACTAAACTTGAAGCCAAAATCCCCTCTCTGGCTCCA"}},
  "format_in_all_cases": "cell-based, human",
  "key": {"VCaP and 22Rv1 cells": {"system": "VCaP and 22Rv1 cells", "assay": "Proliferation assay, viable cells by trypan blue exclusion", "method": "(§1) NXTAR-N5 oligonucleotide was synthesized by IDT, and the oligonucleotide sequence is provided in TABLE 1 and FIG. 7C (* represents phosphorothioate bond modifications to avoid degradation by exonucleases). Equal numbers of VCaP and 22Rv1 cells were transfected with NXTAR-N5 or globin-derived oligonucleotide using X-tremeGENE360 (Sigma-Aldrich, Cat #08724121001), and the number of live cells was counted 96 h post-transfection using trypan blue exclusion method (Sigma, Cat #T8154). RNA was prepared from these cells, and qRT-PCR [SYBR PremixEx Taq II (Tli RNase H Plus)ROX, Clontech Takara, Cat #RR82LR] for AR and AR-V7 was performed as described earlier (see e.g., Mahajan et al. (2017) Cancer Cell).\nThe 22Rv1, VCaP, or LNCaP cells were retrovirally infected with control or NXTAR vectors and selected in puromycin medium containing 5% charcoal-stripped serum. Equal numbers of selected cells were seeded in 6-well plates followed by treatment with either (R)-9b, enzalutamide (Selleck Chemicals, Cat #S1250), or abiraterone (Selleck Chemicals, Cat #52246), and the number of viable cells was counted by trypan blue exclusion assay."}, "AR [1]": {"system": "AR", "assay": "Immunoblotting of AR protein in prostate cancer cells", "method": "Cells were harvested, lysed by sonication in receptor lysis buffer (see e.g., Mahajan et al. (2010) PLoS One) and 20-50 μg of protein lysates were fractionated by SDS-PAGE, and transferred onto a PVDF membrane (Immobilon, Cat #IPVH00010). After blocking in 5% nonfat dry milk (RPI, Cat #M17200) (or 3% BSA, Goldbio, Cat #A-420-500), membranes were incubated with the following monoclonal antibodies: AR (SCBT, Cat #sc-7305; RRID:AB 626671), pY276-AR (29), ACK1 (SCBT, sc-28336; RRID:AB 626629), pACK1 (Upstate, 09-142; RRID:AB 612088), EZH2, and Actin. The signals were visualized by using the enhanced chemiluminescence (ECL; Pierce, 32106) system."}, "AR [2]": {"system": "AR", "assay": "qRT-PCR of AR and AR target gene expression in prostate cancer cells", "method": "as §1\n(§2) Cells were transfected, infected or treated [(R)-9b; EPZ6438, TargetMol, Cat #T1788] accordingly. RNA was used for cDNA preparation using High-Capacity cDNA Reverse Transcription Kit (Thermo Scientific Cat #4368814). Resulting cDNA was then analyzed by qPCR using an Applied Biosystems 7900 Real-Time PCR System (Thermo Scientific) and SYBR Green PCR Master Mix [SYBR PremixEx Taq II (Tli RNase H Plus) ROX, Clontech Takara, Cat #RR82LR] according to the manufacturers' instructions. Dissociation curves were generated for each plate to verify the integrity of the primers. The relative expression of RNAs was calculated using the comparative Ct or standard curve method. 18S rRNA or actin were used as internal controls."}, "AR-V7": {"system": "AR-V7", "assay": "qRT-PCR of AR-V7 expression in prostate cancer cells", "conditions": "22Rv1 cells, reintroduction of NXTAR", "method": "as §1\nas §2, with “18S rRNA or actin were used as internal controls.” left out"}, "[3]": {"conditions": "22Rv1 and VCaP cells infected with retroviral NXTAR construct"}},
  "data": [
    {"molecule": "B1", "values": [
      {"measurement": "sensitivity to abiraterone", "setting": "VCaP and 22Rv1 cells; 22Rv1 cells expressing NXTAR, 5 days", "value": "further sensitized them"},
      {"measurement": "proliferation upon enzalutamide treatment", "setting": "VCaP and 22Rv1 cells; VCaP and 22Rv1 cells expressing NXTAR", "value": "significantly compromised proliferation"},
      {"measurement": "proliferation", "setting": "VCaP and 22Rv1 cells; VCaP and 22Rv1 cells, NXTAR expression vs pBABE vector", "value": "severe loss of proliferation"},
      {"measurement": "AR protein", "setting": "AR [1]; 22Rv1 cells, NXTAR construct 0.25-2 μg, 48 hrs", "value": "dose-dependent downregulation of AR"},
      {"measurement": "AR protein", "setting": "AR [1]; LNCaP and 22Rv1 cells, NXTAR plasmid 24, 48 and 72 hrs", "value": "decreased upon NXTAR expression in a time-dependent manner"},
      {"measurement": "AR expression (protein)", "setting": "AR [1]; VCaP and 22Rv1 cells, NXTAR expression", "value": "loss of AR expression"},
      {"measurement": "AR mRNA level", "setting": "AR [2]; [3]", "value": "significant decrease in AR mRNA level"},
      {"measurement": "KLK3 expression", "setting": "AR [2]; [3]", "value": "significant loss of expression"},
      {"measurement": "TMPRSS2 expression", "setting": "AR [2]; [3]", "value": "significant loss of expression"},
      {"measurement": "AR and KLK3/PSA levels post-DHT-treatment", "setting": "AR [2]; LNCaP and 22Rv1 cells, DHT 10 nM overnight, NXTAR restoration", "value": "significantly compromised upon NXTAR restoration"},
      {"measurement": "AR levels", "setting": "AR [2]; VCaP cells, NXTAR overexpression (rescue experiment)", "value": "significant loss of AR levels"},
      {"measurement": "AR-V7 expression", "setting": "AR-V7", "value": "significantly compromised"}
    ]}
  ]
}
